± gives the uncertainty stated by the source.
B1: Dynamin-binding protein, residues 242 to 304; numbered along this chain, Q6XZF7 (parent)
chain: EEPGTYGVALYRFQALEPNELDFEVGDKIRILATLEDGWLEGSLKGRTGIFPYRFVKLCPDTR

Variants of: B1
Experiment: abundance fitness (aPCA) (normalised: wild type 0, dead -1); higher = more abundant; growth selection in yeast, the domain comes from the species named
Details: Homo sapiens

Row | Variant | abundance fitness
1 | EEPGTYGVALYRFCALEPNELDFEVGDKIRILATLEDGWLEGSLKGRTGIFPYRFVKLCPDTR [Q14C] | -0.268 ± 0.067
2 | EEPGTYGVALYRFVALEPNELDFEVGDKIRILATLEDGWLEGSLKGRTGIFPYRFVKLCPDTR [Q14V] | -0.115 ± 0.054
3 | EEPGTYGVALYRFWALEPNELDFEVGDKIRILATLEDGWLEGSLKGRTGIFPYRFVKLCPDTR [Q14W] | -0.572 ± 0.18
4 | EEPGTYGVALYRFHALEPNELDFEVGDKIRILATLEDGWLEGSLKGRTGIFPYRFVKLCPDTR [Q14H] | -0.032 ± 0.074
5 | EEPGTYGVALYRFTALEPNELDFEVGDKIRILATLEDGWLEGSLKGRTGIFPYRFVKLCPDTR [Q14T] | -0.109 ± 0.063
6 | EEPGTYGVALYRFYALEPNELDFEVGDKIRILATLEDGWLEGSLKGRTGIFPYRFVKLCPDTR [Q14Y] | -0.172 ± 0.066
7 | EEPGTYGVALYRFLALEPNELDFEVGDKIRILATLEDGWLEGSLKGRTGIFPYRFVKLCPDTR [Q14L] | -0.265 ± 0.07
8 | EEPGTYGVALYRFFALEPNELDFEVGDKIRILATLEDGWLEGSLKGRTGIFPYRFVKLCPDTR [Q14F] | -0.413 ± 0.075
9 | EEPGTYGVALYRFIALEPNELDFEVGDKIRILATLEDGWLEGSLKGRTGIFPYRFVKLCPDTR [Q14I] | -0.188 ± 0.057
10 | EEPGTYGVALYRFRALEPNELDFEVGDKIRILATLEDGWLEGSLKGRTGIFPYRFVKLCPDTR [Q14R] | -0.2 ± 0.061
11 | EEPGTYGVALYRFQALECNELDFEVGDKIRILATLEDGWLEGSLKGRTGIFPYRFVKLCPDTR [P18C] | -0.412 ± 0.061
12 | EEPGTYGVALYRFQALEMNELDFEVGDKIRILATLEDGWLEGSLKGRTGIFPYRFVKLCPDTR [P18M] | -0.419 ± 0.19
13 | EEPGTYGVALYRFQALEANELDFEVGDKIRILATLEDGWLEGSLKGRTGIFPYRFVKLCPDTR [P18A] | -0.188 ± 0.063
14 | EEPGTYGVALYRFQALEDNELDFEVGDKIRILATLEDGWLEGSLKGRTGIFPYRFVKLCPDTR [P18D] | -0.044 ± 0.059
15 | EEPGTYGVALYRFQALEFNELDFEVGDKIRILATLEDGWLEGSLKGRTGIFPYRFVKLCPDTR [P18F] | -0.659 ± 0.095
16 | EEPGTYGVALYRFQALEHNELDFEVGDKIRILATLEDGWLEGSLKGRTGIFPYRFVKLCPDTR [P18H] | -0.291 ± 0.078
17 | EEPGTYGVALYRFQALEENELDFEVGDKIRILATLEDGWLEGSLKGRTGIFPYRFVKLCPDTR [P18E] | -0.006 ± 0.13
18 | EEPGTYGVALYRFQALEKNELDFEVGDKIRILATLEDGWLEGSLKGRTGIFPYRFVKLCPDTR [P18K] | -0.336 ± 0.17
19 | EEPGTYGVALYRFQALELNELDFEVGDKIRILATLEDGWLEGSLKGRTGIFPYRFVKLCPDTR [P18L] | -0.42 ± 0.075
20 | EEPGTYGVALYRFQALEGNELDFEVGDKIRILATLEDGWLEGSLKGRTGIFPYRFVKLCPDTR [P18G] | -0.492 ± 0.061
21 | EEPGTYGVALYRRQALEPNELDFEVGDKIRILATLEDGWLEGSLKGRTGIFPYRFVKLCPDTR [F13R] | 0.11 ± 0.06
22 | EEPGTYGVALYRVQALEPNELDFEVGDKIRILATLEDGWLEGSLKGRTGIFPYRFVKLCPDTR [F13V] | -0.71 ± 0.076

Row | Variant | abundance fitness
23 | EEPGTYGVALYRQQALEPNELDFEVGDKIRILATLEDGWLEGSLKGRTGIFPYRFVKLCPDTR [F13Q] | -0.212 ± 0.2
24 | EEPGTYGVALYRTQALEPNELDFEVGDKIRILATLEDGWLEGSLKGRTGIFPYRFVKLCPDTR [F13T] | -0.831 ± 0.15
25 | EEPGTYGVALYRWQALEPNELDFEVGDKIRILATLEDGWLEGSLKGRTGIFPYRFVKLCPDTR [F13W] | -0.483 ± 0.23
26 | EEPGTYGVALYRSQALEPNELDFEVGDKIRILATLEDGWLEGSLKGRTGIFPYRFVKLCPDTR [F13S] | -0.534 ± 0.063
27 | EEPGTYGVALYRYQALEPNELDFEVGDKIRILATLEDGWLEGSLKGRTGIFPYRFVKLCPDTR [F13Y] | 0.213 ± 0.047
28 | EEPGTYGVALYRPQALEPNELDFEVGDKIRILATLEDGWLEGSLKGRTGIFPYRFVKLCPDTR [F13P] | -0.644 ± 0.14
29 | EEPGTYGVALYRFQQLEPNELDFEVGDKIRILATLEDGWLEGSLKGRTGIFPYRFVKLCPDTR [A15Q] | -0.787 ± 0.35
30 | EEPGTYGVALYRFQYLEPNELDFEVGDKIRILATLEDGWLEGSLKGRTGIFPYRFVKLCPDTR [A15Y] | -0.774 ± 0.11
31 | EEPGTYGVALYRFQSLEPNELDFEVGDKIRILATLEDGWLEGSLKGRTGIFPYRFVKLCPDTR [A15S] | 0.131 ± 0.048
32 | EEPGTYGVALYRFQMLEPNELDFEVGDKIRILATLEDGWLEGSLKGRTGIFPYRFVKLCPDTR [A15M] | -0.639 ± 0.31
33 | EEPGTYGVALYRFQHLEPNELDFEVGDKIRILATLEDGWLEGSLKGRTGIFPYRFVKLCPDTR [A15H] | -0.472 ± 0.13
34 | EEPGTYGVALYRFQTLEPNELDFEVGDKIRILATLEDGWLEGSLKGRTGIFPYRFVKLCPDTR [A15T] | 0.06 ± 0.072
35 | EEPGTYGVALYRFQGLEPNELDFEVGDKIRILATLEDGWLEGSLKGRTGIFPYRFVKLCPDTR [A15G] | 0.019 ± 0.055
36 | EEPGTYGVALYRFQELEPNELDFEVGDKIRILATLEDGWLEGSLKGRTGIFPYRFVKLCPDTR [A15E] | -0.734 ± 0.26
37 | EEPGTYGVALYRFQWLEPNELDFEVGDKIRILATLEDGWLEGSLKGRTGIFPYRFVKLCPDTR [A15W] | -0.637 ± 0.23
38 | EEPGTYGVALYRFQNLEPNELDFEVGDKIRILATLEDGWLEGSLKGRTGIFPYRFVKLCPDTR [A15N] | -0.588 ± 0.11
39 | EEPGTYGVALYRFQPLEPNELDFEVGDKIRILATLEDGWLEGSLKGRTGIFPYRFVKLCPDTR [A15P] | -0.355 ± 0.12
40 | EEPGTYGVALYRFQCLEPNELDFEVGDKIRILATLEDGWLEGSLKGRTGIFPYRFVKLCPDTR [A15C] | -0.617 ± 0.076
41 | EEPGTYGVALYRFQLLEPNELDFEVGDKIRILATLEDGWLEGSLKGRTGIFPYRFVKLCPDTR [A15L] | -0.626 ± 0.11
42 | EEPGTYGVALYRFQFLEPNELDFEVGDKIRILATLEDGWLEGSLKGRTGIFPYRFVKLCPDTR [A15F] | -0.982 ± 0.15
43 | EEPGTYGVALYRFQVLEPNELDFEVGDKIRILATLEDGWLEGSLKGRTGIFPYRFVKLCPDTR [A15V] | -0.608 ± 0.11
